± gives the standard deviation.
Experiment: protein stability index of a GFP-peptide fusion (GPS, HEK-293T) (PSI 1-6); higher = more stable
Details: c terminus: a fixed tail appended
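Note: 24-mer peptide tiles fused after GFP, lentivirally expressed, FACS-sorted into six equal bins by GFP/DsRed ratio, decoded by Illumina sequencing, PSI is the read-weighted mean bin number.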

Sequence | protein stability index (treatment: DMSO) | protein stability index (treatment: MLN4924 1 uM, 8 h)
VLMKGQHLHLETFKAVLDGLDVLL [PRAME] | 2.26 ± 0.38 | 2.17 ± 0.1
MVRRLKMVVKTFMDMDQDSEEEKE [PDS5B] | 2.73 ± 0.38 | 3.13 ± 0.26
GHSQPDGAYSSASSFSRPLGYPYV [DLX1] | 3.35 ± 0.14 | 3.17 ± 0.29
DDMPIGRNVLELNDVRQSANYTCV [PTPRD] | 3.72 ± 0.28 | 3.77 ± 0.44
RMGATMAAINSIYSNTDANILFYV [GLT8D2] | 2.63 ± 0.59 | 3.14 ± 1.5
KGPGAPQYPAGTQGEQLEVPERLL [SPSB2] | 4.93 ± 0.15 | 4.72 ± 0.26
HTRSITSCCFDPDSQRVASVSLDR [WDR88] | 3.53 ± 0.4 | 3.44 ± 0.39
DEPYEKVVDRIQSSGKNVTLLVCG [PDZK1] |  | 3.5 ± 0.36
IDHYVGIARDQTKSIVEKIQAKLP [RTN3] | 3.05 ± 0.074 | 3.22 ± 0.39
NTRGTGSSSSGVLMVGPNFRVGKK [CSNK1G3] | 4.48 ± 0.2 | 4.51 ± 0.18
WGDLLGEDSLAALSSVPSEAQISD [SNAP91] | 4.76 ± 0.3 | 4.71 ± 0.22
SVHNDLWESWFVPDPAGIFKLNHH [GLT8D2] | 2.38 ± 0.18 | 2.53 ± 0.22
QDLLDVIRIKLDPCHPTVKNWRNF [EDARADD] | 2.27 ± 0.75 | 2.35 ± 0.34
YETESETESEIESETDFETEPETA [GNAS] | 5.2 ± 0.17 | 5.22 ± 0.15
NIPGNSTLITAVELERFVNLHSLA [FBXO33] | 2.27 ± 0.24 | 2.23 ± 0.37
LERKCEKRSVYIDARDEELEKDTM [ZC3H15] | 4.93 ± 0.49 | 4.9 ± 0.075
LPETLNSPLLETFSDLQVYSYRRL [SLC22A15] | 2.4 ± 0.1 | 2.81 ± 0.27
KQYDQQFPDGDDEFDSPHEDIVFE [STX11] | 5.18 ± 0.14 | 5.11 ± 0.2
PAEQAFWCLVQICEKYLPGYYSEK [TBC1D10A] | 3.37 ± 0.55 | 3.46 ± 0.48
LPDLCLCRVFWWLGDRDRSRAALV [FBXO39] | 2.5 ± 0.51 | 2.76 ± 0.7
SVVPEMEESGAQLLLEMLTFNPHK [CDK4] | 3.14 ± 0.26 | 3.15 ± 0.38
QAGPEATTSDPQDLDMKKHRCKCC [PALM] | 5.06 ± 0.3 | 5.17 ± 0.11
SFRAGSKGLSGGFGSRSLYSLGGV [KRT71] | 2.12 ± 0.21 | 2.77 ± 0.33

Sequence | protein stability index (treatment: DMSO) | protein stability index (treatment: MLN4924 1 uM, 8 h)
HGWLRPEMRTKEQILELLVLEQFL [ZNF263] | 2.46 ± 0.47 | 2.61 ± 0.43
LEGSHDTANCEACTLGICGQGLKS [RTP4] | 5.13 ± 0.25 | 5.11 ± 0.12
PRELASMSLVLHGNNLLVFGGTGI [KLHDC10] | 2.46 ± 0.71 | 2.45 ± 0.59
GPPPAQGSPGDGGLQDQVGAWGLP [EMID1] | 5.02 ± 0.12 | 5.03 ± 0.4
GLSTEAEQPFIPVEVLVDLFLKEG [PRAME] | 3.05 ± 0.11 | 3.3 ± 0.33
PEKKSDQPMCEEHEEERINIYCLN [TRIM55] | 4.79 ± 0.12 | 4.77 ± 0.35
SWAWRGPGVLKVLWLTASQPCSIV [LPCAT4] | 2.74 ± 1.1 | 2.52 ± 0.84
KMVSAEISENRKRQWPTKSQTDRG [SDE2] | 4.52 ± 0.069 | 4.41 ± 0.2
IPRGFPTIDMGPQLKVVERTRTAT [PTPRD] | 3.92 ± 0.24 | 3.68 ± 0.37
KKELEENFEKLRLSLQDQVDTLTF [MTUS2] | 3.94 ± 0.64 | 3.8 ± 0.42
VKRKIRDESLCPQHHEALSLFCYE [TRIM39] | 2.38 ± 0.11 | 2.73 ± 0.3
VQKLVKVCTDTDRWSLISLSNKNG [TENT5C] | 2.64 ± 0.034 | 2.85 ± 0.26
PSVPPTIKEEENSEEELAAATTSK [MYBL2] | 5.52 ± 0.53 | 5.56 ± 0.4
SNNKKNDEMQEVPNRVLAPEQSLK [SPANXN3] | 5.27 ± 0.16 | 5.36 ± 0.17
EDRLSLKFLPSSEEDNDDAKILPS [DRICH1] | 5.34 ± 0.23 | 5.33 ± 0.11
LLFKLVAPVTFRHHRYDDLVRTLY [CPN1] | 2.65 ± 0.63 | 2.83 ± 0.56
KQLISQTKKKQWCYNCEEEAMYHC [ZMYND11] | 3.1 ± 0.17 | 3.22 ± 0.34
ESTFMYLTLDLPTAPLYKDEKEQL [USP39] | 3.4 ± 0.2 | 3.55 ± 0.15
MSFPHFGHPYRGASQFLASASSST [IRX6] | 3.25 ± 0.21 | 3.13 ± 0.25
PAKAANRTPPKSPGDPSKDRAAKR [TPPP] | 5.22 ± 0.38 | 5.21 ± 0.32
CSSKRSSYPVMGFEFQVRVCDSCY [WDFY1] | 2.66 ± 0.9 | 2.32 ± 0.23
LDGKKKGVEPSPSPIKPGDIKRGI [UFD1] | 4.92 ± 0.24 | 4.92 ± 0.25
YPALREKSKKYSDVEVPASVTGYS [ADD1] | 4.16 ± 0.2 | 4.28 ± 0.25

Sequence | protein stability index (treatment: DMSO) | protein stability index (treatment: MLN4924 1 uM, 8 h)
AFAEMLRFGDRMFYKDWWNSTSYS [SOAT1] | 2.52 ± 0.36 | 2.58 ± 0.54
SPAGELPKTVQQPTESEPVTINIQ [MATN2] | 5.29 ± 0.31 | 5.24 ± 0.38
LPPKVGSFQLFVEGYKDADYWLRR [PI4K2A] | 2.41 ± 0.34 | 2.46 ± 0.17
RRFNFDTDRPLLSTLEESVVRICC [SMG5] | 2.17 ± 0.25 | 2.19 ± 0.22
KGLNARMMRGLSYSLTTSSTHKSS [RAB40A] | 3.39 ± 0.28 | 3.52 ± 0.32
TLVGCWSDVVGRRSSLLACILLSA [MFSD9] | 2.84 ± 0.38 | 2.71 ± 0.4
MSTFRQEDVEDHYEMGEELGSGQF [DAPK3] | 5.43 ± 0.22 | 5.33 ± 0.48
EDQYEENSHLTSVPHWINSNTLGF [ETS2] | 3.2 ± 0.34 | 3.13 ± 0.3
TSTFEATSEGTLELQQRNPKAERL [ZNF232] | 5.2 ± 0.2 | 5.42 ± 0.14
EEGFMTAELAGVIKRLWKDSGVQA [GNAI1] | 3.19 ± 0.49 | 3.53 ± 0.58
TYIPENNARGASIFSVTALDPDSK [PCDHGA10] | 4.49 ± 0.17 | 4.62 ± 0.15
ERGTPGLPGPKGDDGKLGATGPMG [SCARA5] | 4.92 ± 0.34 | 4.95 ± 0.15
FIIGELHPDDRPKLNKPPETLITT [CYB5A] | 2.73 ± 0.35 | 2.91 ± 0.4
FASDGDSGTCSPLRHSFQKQQREK [ADD1] | 3.98 ± 0.41 | 4.17 ± 0.39
GRYVKENCKPLKSYMLQDSLEHVQ [CLK3] | 3.1 ± 0.23 | 3.08 ± 0.48
ETFIVPDSFLVALDMDDGTLSFIV [SPSB1] | 2.66 ± 0.33 | 2.58 ± 0.54
MGVNAVHWFRKGLRLHDNPALKEC [CRY1] | 2.53 ± 0.23 | 2.54 ± 0.31
IVEDPQTKCEYMLNSMPKRLCLVC [ESRRG] | 2.39 ± 0.46 | 2.05 ± 0.24
VEYKDIASIHWDWKIALLFVAFAL [SLC35F2] | 2.81 ± 0.8 | 2.74 ± 0.32
GPKESLPVIAAPSMWTRPQIKDFK [ACBD3] | 3.8 ± 0.29 | 3.79 ± 0.16
HDGKNQPGVAYPAFLGPDEAFALP [SPSB4] | 4.12 ± 0.3 | 4.06 ± 0.21
GWETRGDRKARKPLVEKKRRARIN [HES6] | 4.31 ± 0.36 | 4.54 ± 0.12
ISESMAACTRSLLGDPPPLLTLPR [HDAC6] | 2.98 ± 0.14 | 3.29 ± 0.41

Sequence | protein stability index (treatment: DMSO) | protein stability index (treatment: MLN4924 1 uM, 8 h)
RKDTKEIYTHFTCATDTKNVQFVF [GNAI1] | 2.49 ± 1 | 2.64 ± 0.43
YTRIWSLHDARLLRTIPSPYPASK [DCAF4] | 2.46 ± 0.48 | 2.87 ± 0.17
GDKSESPDEANVGKHPKDKTEDEN [TOR1AIP2] | 5.55 ± 0.2 | 5.44 ± 0.46
EPSLKATMGLAGRARVKEKFSPEA [ALG2] | 4.6 ± 0.34 | 4.94 ± 0.19
GHRYPCFFNTLHVGGTIRTCQKFL [POP5] | 2.23 ± 0.48 | 2.03 ± 0.21
PSGFLQISDALIRRVHLTEDQWGK [TRIM9] | 2.84 ± 0.25 | 2.59 ± 0.24
SVTDVTTSSLRLNWEAPPGAFDSF [TNXB] | 3.54 ± 0.2 | 3.35 ± 0.16
DVGRYIDHYAAIKKAWDDLKKYLE [FBXO3] | 2.31 ± 0.34 | 2.97 ± 0.52
SENMWNTGSTYNLSSGMAVAGMPT [CARM1] | 3.48 ± 0.15 | 3.63 ± 0.1
ATKPSHWCSVAYWEHRTRVGRLYA [SMAD6] | 2.62 ± 0.55 | 1.91 ± 0.17
ASDLSSEEGWRLFKIDKEYLLKMA [SAT1] | 2.42 ± 0.17 | 2.6 ± 0.33
ILKRRSDEALERCQILELLNAELE [CCDC89] | 2.68 ± 0.34 | 3 ± 0.42
CQGQPQGKAVVSHSKGHKSSRQEK [ELOA2] | 5.38 ± 0.22 | 5.37 ± 0.1
RIIYQNKCMRNGPNALIASLALGD [EDNRA] | 2.48 ± 0.18 | 2.26 ± 0.21
DLKDDGNMMKVLRGHQNWVYSCAF [WSB1] | 2.3 ± 0.29 | 1.87 ± 0.22
SQKGCLALSLLELLGFNLTFVFLA [CLCN6] | 3.15 ± 0.42 | 3.03 ± 0.42
SYSTQASAAAATAELLKKQEELNR [SCAMP3] | 4.99 ± 0.19 | 5.03 ± 0.11
AGPDSWGSDAEQSTSGQPYPTSDQ [LCOR] | 5.48 ± 0.23 | 5.4 ± 0.13
VPGEFKQDVTVVGSAGRLLAVGTD [GFOD1] | 4.1 ± 0.29 | 3.69 ± 0.17
HFQEAIDFIDCVREKGGKVLVHCE [DUSP5] | 2.76 ± 0.39 | 2.76 ± 0.53
DHMREAGDVCYADVYRDGTGVVEF [SRSF1] | 3.15 ± 0.28 | 3.18 ± 0.23

Source: the supplement of paper PMC10567573
